Values quoted from earlier work as cited in publication PMC6627431.

How the values were obtained:
KV1.2 = KV1.2 (UniProt P16389)
KV1.1 = KV1.1 (UniProt Q09470)
KV1.3 = KV1.3 (UniProt P22001)
Chain of UniProt P22001 (P22001 whole entry): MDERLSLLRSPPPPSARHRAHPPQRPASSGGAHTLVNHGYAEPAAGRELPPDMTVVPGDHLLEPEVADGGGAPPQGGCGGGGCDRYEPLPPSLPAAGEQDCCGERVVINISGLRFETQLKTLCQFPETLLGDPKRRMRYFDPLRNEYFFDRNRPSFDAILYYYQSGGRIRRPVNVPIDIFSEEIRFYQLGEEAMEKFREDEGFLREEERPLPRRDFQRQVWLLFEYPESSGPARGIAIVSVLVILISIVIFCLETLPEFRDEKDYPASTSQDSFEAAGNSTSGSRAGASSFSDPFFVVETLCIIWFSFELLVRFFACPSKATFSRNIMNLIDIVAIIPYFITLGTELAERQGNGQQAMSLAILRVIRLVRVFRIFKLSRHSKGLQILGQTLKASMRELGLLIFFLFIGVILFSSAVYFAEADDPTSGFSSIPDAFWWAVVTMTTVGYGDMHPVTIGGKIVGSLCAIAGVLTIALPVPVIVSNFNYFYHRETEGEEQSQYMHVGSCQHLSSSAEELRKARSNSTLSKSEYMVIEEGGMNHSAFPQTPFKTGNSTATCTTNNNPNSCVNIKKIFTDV

Chain of UniProt P16389 (P16389 whole entry): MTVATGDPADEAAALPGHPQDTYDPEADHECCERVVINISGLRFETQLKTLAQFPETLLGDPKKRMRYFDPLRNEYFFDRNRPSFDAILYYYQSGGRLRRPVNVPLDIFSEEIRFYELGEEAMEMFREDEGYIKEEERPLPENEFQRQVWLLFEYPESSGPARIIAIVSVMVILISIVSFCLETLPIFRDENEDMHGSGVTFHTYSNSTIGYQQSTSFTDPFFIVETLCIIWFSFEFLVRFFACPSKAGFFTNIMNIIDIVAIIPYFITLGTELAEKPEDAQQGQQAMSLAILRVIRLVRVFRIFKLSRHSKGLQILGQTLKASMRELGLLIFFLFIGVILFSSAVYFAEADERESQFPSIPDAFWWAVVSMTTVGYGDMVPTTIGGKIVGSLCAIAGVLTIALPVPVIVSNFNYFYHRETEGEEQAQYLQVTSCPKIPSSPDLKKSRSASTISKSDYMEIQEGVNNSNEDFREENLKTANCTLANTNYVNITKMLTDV
Chain of UniProt Q09470 (Q09470 whole entry): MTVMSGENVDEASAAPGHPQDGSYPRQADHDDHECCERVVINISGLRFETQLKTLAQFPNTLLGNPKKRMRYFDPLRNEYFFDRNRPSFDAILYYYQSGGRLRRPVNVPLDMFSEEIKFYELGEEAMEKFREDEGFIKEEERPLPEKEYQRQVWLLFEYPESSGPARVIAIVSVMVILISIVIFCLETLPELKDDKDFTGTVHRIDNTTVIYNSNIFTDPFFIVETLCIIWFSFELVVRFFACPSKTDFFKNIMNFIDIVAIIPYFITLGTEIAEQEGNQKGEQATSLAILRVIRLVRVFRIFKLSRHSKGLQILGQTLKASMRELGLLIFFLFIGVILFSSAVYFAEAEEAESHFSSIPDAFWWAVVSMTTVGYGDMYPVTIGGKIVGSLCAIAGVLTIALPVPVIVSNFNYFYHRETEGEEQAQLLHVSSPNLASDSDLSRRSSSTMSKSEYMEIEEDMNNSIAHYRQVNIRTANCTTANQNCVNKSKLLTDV

**Q.** With BgK (from UniProt P29186) as the substance, how does the Kd (KV1.2) read?
**A.** 15 nM

**Q.** And the Kd (KV1.1)?
**A.** 6 nM

**Q.** And the Kd (KV1.3)?
**A.** 10 nM
